According to patent US12552837B2, “Bicyclic peptide ligands with detectable moieties and uses thereof” (BicycleRD Limited, priority 2017, dated 2026):
*1 amine or outer side, *2 acyl side, *3 side chain or, on linkers, in order; H or OH if unused. Where a SMILES comes first, the peptide text is derived from it. Bridges are numbered along the chain shown (N, C = ends). Where no end group is shown, it is not given here. [ ]: non-standard residue; d: D form. The star is where a group is joined. DOTA = O=C(O)CN1CCN(CC(=O)O)CCN(CC(=O)*)CCN(CC(=O)O)CC1; 1Nal = N[C@@H](Cc1cccc2ccccc12)C(=O)O; TBMB = c1c(C[*:1])cc(C[*:3])cc1C[*:2]; hArg = N=C(N)NCCCC[C@H](N)C(=O)O; Tle = CC(C)(C)[C@H](N)C(=O)O; Aib = CC(C)(N)C(=O)O; βAla = NCCC(=O)O; Sar = CNCC(=O)O

Key:
human CAIX = human CAIX (Homo sapiens, UniProt Q16790); conditions: bicyclic peptide formed with TBMB; as described in UK provisional application P2120; read-out: Kd of CAIX binder; cited from earlier work
integrin αvβ3 = integrin αvβ3 (Homo sapiens, UniProt P05106+P06756); conditions: bicyclic peptide formed with TBMB; as described in UK provisional application P2122; read-out: Ki of αvβ3 binder; cited from earlier work
MT1-MMP hemopexin domain = MT1-MMP hemopexin domain (Homo sapiens, UniProt P50281); conditions: bicyclic peptide formed with TBMB; as described in WO 2016/067035; read-out: Kd of MT1-MMP binder; cited from earlier work
xenograft tumor = assay: μPET imaging with 68Ga-labelled Bicycle peptides in xenograft mice; type: in vivo; conditions: 150 pmoles
Protocol: General method for μPET imaging: the mice were anaesthetized (2% sevoflurane, Abbott), placed into the small animal PET scanner (Inveon PET, Siemens) and injected with 68Ga-labeled Bicycle peptides. A 20 min transmission scan, a 50 min dynamic scan and a static scan from 100 to 120 min p.i. were performed. Images were reconstructed iteratively using the space alternating generalized expectation maximization method (SAGE, 16 subsets, 4 iterations) applying median root prior correction and were converted to standardized uptake value (SUV) images. Quantitation was done using a ROI (region of interest) technique and expressed as SUVmean.
General method for radiolabeling with Ga-68: ^68Ga (half-life 68 min; β^+ 89%; Eβ+max. 1.9 MeV) was obtained from a in house ^68Ge/^68Ga generator based on pyrogallol resin support. 1 GBq ^68Ga was eluted using 5.5 M HCl. The activity was trapped on a small anion-exchanger cartridge (AG1X8, Biorad, Richmond, CA, USA) as [^68Ga]GaCl4^−. The radiogallium was eluted from the cartridge in a final volume of 300 μL ultrapure water (Merck, Darmstadt, Germany) as [^68Ga]GaCl3.
1 nmol Bicycle peptide in 1 μL DMSO was added to a mixture of 50 μL 0.05 M HEPES, 0.1% Tween-20, and 80 μL [^68Ga]Ga^3+ eluate (˜200 MBq). The pH of the labelling solution was adjusted to 4.2 using 30% NaOH. The reaction mixture was incubated at 98° C. for 10 minutes. The radiochemical yield (RCY) was determined using reversed-phase high performance liquid chromatography (RP-HPLC; Chromolith RP-18e, 100×4.6 mm; Merck, Darmstadt, Germany). The analytical HPLC run was performed using a linear A-B gradient (0% B to 100% B in 6 min) at a flow rate of 4 mL/min. Solvent A consisted of 0.1% aqueous TFA and solvent B was 0.1% TFA in CH3CN.
For μPET imaging, the labelling reaction mixture was diluted in injection buffer (0.25 M Na-Acetate 0.05% Tween-20 pH 7) by a factor of 6 to obtain 150 pmoles in 100 μL injection buffer. The anaesthetized mouse (2% sevoflurane, Abbott) was injected with 100 μL of ^68Ga-labelled I-23 (˜25 MBq) and placed in a small animal PET scanner (Inveon PET, Siemens). The imaging was performed 60 min post-injection and included a 15 min transmission scan before injection and a 60 min emission scan post-injection. Scans from μPET imaging were reconstructed iteratively using the space alternating generalized expectation maximization method (SAGE, 16 subsets, 4 iterations) applying median root prior correction and were converted to standardized uptake value (SUV) images. Quantitation was accomplished using an ROI (region of interest) technique and expressed as SUVmean.
The radiolabelling with Ga-68 was done as described before. […] Quantitation was accomplished using an ROI (region of interest) technique and expressed as SUVmean. […]

integrin αvβ3, sequence (P06756 31-889 limits assumed): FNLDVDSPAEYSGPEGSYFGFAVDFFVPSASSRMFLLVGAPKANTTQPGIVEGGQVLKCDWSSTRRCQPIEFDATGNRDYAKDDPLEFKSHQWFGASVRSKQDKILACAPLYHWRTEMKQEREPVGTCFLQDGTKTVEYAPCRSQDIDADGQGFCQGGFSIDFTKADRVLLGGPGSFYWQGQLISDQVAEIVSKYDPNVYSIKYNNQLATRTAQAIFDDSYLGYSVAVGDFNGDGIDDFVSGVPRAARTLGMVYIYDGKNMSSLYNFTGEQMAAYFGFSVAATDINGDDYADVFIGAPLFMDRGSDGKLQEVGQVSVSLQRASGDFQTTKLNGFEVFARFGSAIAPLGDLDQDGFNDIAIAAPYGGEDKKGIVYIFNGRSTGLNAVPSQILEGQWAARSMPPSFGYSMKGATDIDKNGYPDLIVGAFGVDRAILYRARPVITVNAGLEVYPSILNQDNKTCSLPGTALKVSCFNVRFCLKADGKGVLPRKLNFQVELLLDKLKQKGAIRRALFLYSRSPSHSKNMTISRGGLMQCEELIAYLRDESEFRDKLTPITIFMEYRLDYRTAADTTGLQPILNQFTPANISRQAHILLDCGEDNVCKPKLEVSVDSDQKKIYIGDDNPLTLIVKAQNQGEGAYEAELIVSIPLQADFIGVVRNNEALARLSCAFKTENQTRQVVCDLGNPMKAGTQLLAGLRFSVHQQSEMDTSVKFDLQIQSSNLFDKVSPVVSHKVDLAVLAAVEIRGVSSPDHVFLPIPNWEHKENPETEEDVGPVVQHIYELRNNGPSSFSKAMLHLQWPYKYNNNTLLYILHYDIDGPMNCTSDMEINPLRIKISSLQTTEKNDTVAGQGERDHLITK
integrin αvβ3, sequence (P06756 891-1048 partner limits assumed): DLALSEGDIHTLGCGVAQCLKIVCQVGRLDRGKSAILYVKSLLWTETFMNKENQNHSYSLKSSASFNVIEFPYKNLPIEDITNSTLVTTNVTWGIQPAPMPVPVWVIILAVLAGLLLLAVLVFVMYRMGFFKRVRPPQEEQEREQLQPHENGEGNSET
integrin αvβ3, sequence (P05106 27-788): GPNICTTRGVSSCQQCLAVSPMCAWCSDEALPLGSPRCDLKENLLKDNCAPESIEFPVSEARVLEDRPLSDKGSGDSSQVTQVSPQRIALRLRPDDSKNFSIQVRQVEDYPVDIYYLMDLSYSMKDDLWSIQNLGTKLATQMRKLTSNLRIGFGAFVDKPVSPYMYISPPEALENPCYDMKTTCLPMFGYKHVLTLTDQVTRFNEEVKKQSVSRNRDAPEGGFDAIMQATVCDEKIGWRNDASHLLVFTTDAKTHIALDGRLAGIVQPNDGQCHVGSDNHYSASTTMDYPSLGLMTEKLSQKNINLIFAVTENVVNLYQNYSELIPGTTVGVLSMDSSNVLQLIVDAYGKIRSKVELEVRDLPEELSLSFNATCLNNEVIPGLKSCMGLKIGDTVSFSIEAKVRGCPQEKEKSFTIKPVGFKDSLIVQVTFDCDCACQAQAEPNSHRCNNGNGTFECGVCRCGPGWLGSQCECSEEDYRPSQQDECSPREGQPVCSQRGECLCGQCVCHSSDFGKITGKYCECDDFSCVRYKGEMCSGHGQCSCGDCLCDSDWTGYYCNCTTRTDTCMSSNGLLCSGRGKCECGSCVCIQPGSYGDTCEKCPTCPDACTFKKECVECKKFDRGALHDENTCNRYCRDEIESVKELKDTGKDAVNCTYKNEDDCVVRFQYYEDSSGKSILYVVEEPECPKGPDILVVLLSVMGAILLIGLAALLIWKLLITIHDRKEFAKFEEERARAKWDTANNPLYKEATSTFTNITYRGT

**Q.** With “βA1a-Sar10-A-CTECWVDGWVPC [compound 3, "peptide 3"]” as the molecule, how does the Kd (human CAIX) read?
**A.** 10 nM

**Q.** With “Ac-CIL(HArg)PNCDLDGRCA-Sar6-(D-K) [compound 5, "peptide 5"]” as the molecule, how does the Ki (integrin αvβ3) read?
**A.** 15 nM

**Q.** For “βAla-Sar10-A-C(D-Ala)NE(1Nal)(D-Ala)CEDFYD(tBuGLy)C ([βAla][Sar][Sar][Sar][Sar][Sar][Sar][Sar][Sar][Sar][Sar]AC[dA]NE[1Nal][dA]CEDFYD[Tle]C; linker 13-19-26 via TBMB) [17-69-07-N241, "peptide 1 (17-69-07-N241)"]”, which Kd (MT1-MMP hemopexin domain) is on record?
**A.** 1.2 nM

**Q.** For `CC(C)[C@H](NC(=O)[C@@H](CC(=O)O)NC(=O)[C@H](Cc1c[nH]cn1)NC(=O)CN(C)C(=O)CN(C)C(=O)CN(C)C(=O)CN(C)C(=O)CN(C)C(=O)CN(C)C(=O)CN(C)C(=O)CN(C)C(=O)CN(C)C(=O)CN(C)C(=O)CCNC(=O)CN1CCN(CC(=O)O)CCN(CC(=O)O)CCN(CC(=O)O)CC1)C(=O)N1CCC[C@H]1C(=O)N[C@H]1CSCc2cc3cc(c2)CSC[C@H](NC(=O)[C@H](Cc2cccc4ccccc24)NC(=O)[C@H](Cc2ccccc2)NC(=O)C(C)(C)NC(=O)CNC(=O)[C@H](Cc2cccc4ccccc24)NC(=O)C(C)(C)NC1=O)C(=O)N1CCC[C@H]1C(=O)N[C@@H](C(C)(C)C)C(=O)N[C@@H](CC(N)=O)C(=O)N[C@@H](CCCCNC(=N)N)C(=O)N1CCC[C@H]1C(=O)N[C@H](CC(=O)O)C(=O)N[C@H](C(N)=O)CSC3` [I-15] ({DOTA-βAla}-[Sar][Sar][Sar][Sar][Sar][Sar][Sar][Sar][Sar][Sar]H[dD]VPC[Aib][1Nal]G[Aib]F[1Nal]CP[Tle]N[hArg]P[dD]C-NH2; linker 15-22-29 via TBMB), which “liver uptake in PET imaging” value (xenograft tumor) is on record?
**A.** clearly reduced liver uptake

**Q.** What about the “tumor signal in PET imaging” value (xenograft tumor) of the same molecule?
**A.** extremely high
